According to PMC12148432, “Discovery and biochemical characterization of the D-aspartyl endopeptidase activity of the serine protease LACTB [drawing 1]” (The Journal of Biological Chemistry, 2025):

Substrate: Cc1cc(=O)oc2cc(NC(=O)[C@@H](CC(=O)O)NC(=O)CCC(=O)O)ccc12
Experiment: AMC fluorescence, kinetic plate-reader assay, initial rates
Type: biochemical, Homo sapiens
Conditions: pH 8.0, 30 °C, Tris-HCl, 150 mM NaCl

B1: 6His-SUMO1-hLACTB (97–547) (hLACTB WT) (Homo sapiens) (protein)
chain: APPCSRCFARAIESSRDLLHRIKDEVGAPGIVVGVSVDGKEVWSEGLGYADVENRVPCKPETVMRIASISKSLTMVALAKLWEAGKLDLDIPVQHYVPEFPEKEYEGEKVSVTTRLLISHLSGIRHYEKDIKKVKEEKAYKALKMMKENVAFEQEKEGKSNEKNDFTKFKTEQENEAKCRNSKPGKKKNDFEQGELYLREKFENSIESLRLFKNDPLFFKPGSQFLYSTFGYTLLAAIVERASGCKYLDYMQKIFHDLDMLTTVQEENEPVIYNRARFYVYNKKKRLVNTPYVDNSYKWAGGGFLSTVGDLLKFGNAMLYGYQVGLFKNSNENLLPGYLKPETMVMMWTPVPNTEMSWDKEGKYAMAWGVVERKQTYGSCRKQRHYASHTGGAVGASSVLLVLPEELDTETINNKVPPRGIIVSIICNMQSVGLNSTALKIALEFDKDRSD
notes: residues 97-547 (putative catalytic domain), N-terminal 6His-SUMO1 fusion kept, expressed in Escherichia coli, Ni-NTA and size-exclusion purified
Km: 25.3 ± 2.7 µM | kcat: 6.02 ± 0.12 s⁻¹
